Source: the supplement of paper PMC9112550, “Optimization of the antimicrobial peptide Bac7 by deep mutational scanning” (BMC Biology, 2022)

Tested on: Escherichia coli TOP10
Assay: shrunken log2 fold change of peptide-encoding DNA abundance (4.5 h post-induction vs induction); higher = less antimicrobial activity (less host growth inhibition)
Conditions: time post-induction: 4.5 h; library: site-saturation at positions 5, 18, 19, 20
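Further: peptides expressed intracellularly from a pBAD plasmid library in pooled LB shake-flask culture, induced with 0.3% L-arabinose, DNA abundance read by NGS, three biological replicates, DESeq2 with apeglm shrinkage.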

RRIRTRPPRLPRPRPRPYFKPRP
shrunken log2 fold change: -0.577

RRIRTRPPRLPRPRPRPYHTPRP
shrunken log2 fold change: -0.723

RRIRTRPPRLPRPRPRPYLPPRP
shrunken log2 fold change: -0.513

RRIRTRPPRLPRPRPRPYNNPRP
shrunken log2 fold change: -0.429

RRIRTRPPRLPRPRPRPYNQPRP
shrunken log2 fold change: -0.33

RRIRTRPPRLPRPRPRPYNYPRP
shrunken log2 fold change: -0.866

RRIRTRPPRLPRPRPRPYPKPRP
shrunken log2 fold change: -0.0976

RRIRTRPPRLPRPRPRPYQCPRP
shrunken log2 fold change: -0.0724

RRIRTRPPRLPRPRPRPYQMPRP
shrunken log2 fold change: 0.0528

RRIRTRPPRLPRPRPRPYQTPRP
shrunken log2 fold change: -0.128

RRIRTRPPRLPRPRPRPYRQPRP
shrunken log2 fold change: -0.00615

RRIRTRPPRLPRPRPRPYVWPRP
shrunken log2 fold change: -0.131

RRIRTRPPRLPRPRPRPYVYPRP
shrunken log2 fold change: -1.18

RRIRTRPPRLPRPRPRPYWGPRP
shrunken log2 fold change: -0.0337

RRIRTRPPRLPRPRPRPYWMPRP
shrunken log2 fold change: -0.707

RRIRTRPPRLPRPRPRPYWWPRP
shrunken log2 fold change: -0.554

RRIRVRPPRLPRPRPRPAAHPRP
shrunken log2 fold change: 0.0619

RRIRVRPPRLPRPRPRPACYPRP
shrunken log2 fold change: -0.0764

RRIRVRPPRLPRPRPRPADAPRP
shrunken log2 fold change: -0.183

RRIRVRPPRLPRPRPRPAEDPRP
shrunken log2 fold change: 0.0101

RRIRVRPPRLPRPRPRPAFCPRP
shrunken log2 fold change: 0.185

RRIRVRPPRLPRPRPRPAGTPRP
shrunken log2 fold change: 0.146

RRIRVRPPRLPRPRPRPAHIPRP
shrunken log2 fold change: -0.0203

RRIRVRPPRLPRPRPRPAHKPRP
shrunken log2 fold change: -0.0968

RRIRVRPPRLPRPRPRPAIEPRP
shrunken log2 fold change: 0.0433

RRIRVRPPRLPRPRPRPALIPRP
shrunken log2 fold change: 0.342

RRIRVRPPRLPRPRPRPALKPRP
shrunken log2 fold change: 0.253

RRIRVRPPRLPRPRPRPANGPRP
shrunken log2 fold change: 0.136

RRIRVRPPRLPRPRPRPANKPRP
shrunken log2 fold change: -0.36

RRIRVRPPRLPRPRPRPANNPRP
shrunken log2 fold change: -0.272

RRIRVRPPRLPRPRPRPANYPRP
shrunken log2 fold change: -0.241

RRIRVRPPRLPRPRPRPAPDPRP
shrunken log2 fold change: 0.377

RRIRVRPPRLPRPRPRPAPRPRP
shrunken log2 fold change: 0.634

RRIRVRPPRLPRPRPRPAQAPRP
shrunken log2 fold change: 0.74

RRIRVRPPRLPRPRPRPATCPRP
shrunken log2 fold change: -0.164

RRIRVRPPRLPRPRPRPATMPRP
shrunken log2 fold change: -0.259

RRIRVRPPRLPRPRPRPAVKPRP
shrunken log2 fold change: 0.318

RRIRVRPPRLPRPRPRPAWAPRP
shrunken log2 fold change: 0.255

RRIRVRPPRLPRPRPRPAWFPRP
shrunken log2 fold change: 0.0841

RRIRVRPPRLPRPRPRPAYVPRP
shrunken log2 fold change: -0.17

RRIRVRPPRLPRPRPRPCADPRP
shrunken log2 fold change: -0.101

RRIRVRPPRLPRPRPRPCAEPRP
shrunken log2 fold change: -0.0931

RRIRVRPPRLPRPRPRPCCKPRP
shrunken log2 fold change: 0.905

RRIRVRPPRLPRPRPRPCCLPRP
shrunken log2 fold change: -0.241

RRIRVRPPRLPRPRPRPCCNPRP
shrunken log2 fold change: -0.426

RRIRVRPPRLPRPRPRPCCVPRP
shrunken log2 fold change: -0.146

RRIRVRPPRLPRPRPRPCDGPRP
shrunken log2 fold change: 0.0303

RRIRVRPPRLPRPRPRPCDHPRP
shrunken log2 fold change: -0.338

RRIRVRPPRLPRPRPRPCFLPRP
shrunken log2 fold change: -0.493

RRIRVRPPRLPRPRPRPCGMPRP
shrunken log2 fold change: -0.00417

RRIRVRPPRLPRPRPRPCGSPRP
shrunken log2 fold change: -0.225

RRIRVRPPRLPRPRPRPCHAPRP
shrunken log2 fold change: -0.311

RRIRVRPPRLPRPRPRPCHPPRP
shrunken log2 fold change: -0.0124

RRIRVRPPRLPRPRPRPCHRPRP
shrunken log2 fold change: -0.0177

RRIRVRPPRLPRPRPRPCIFPRP
shrunken log2 fold change: -0.0604

RRIRVRPPRLPRPRPRPCILPRP
shrunken log2 fold change: -0.208

RRIRVRPPRLPRPRPRPCITPRP
shrunken log2 fold change: -0.233

RRIRVRPPRLPRPRPRPCKPPRP
shrunken log2 fold change: -0.692

RRIRVRPPRLPRPRPRPCLGPRP
shrunken log2 fold change: -0.069

RRIRVRPPRLPRPRPRPCNTPRP
shrunken log2 fold change: -0.586

RRIRVRPPRLPRPRPRPCSCPRP
shrunken log2 fold change: 0.141

RRIRVRPPRLPRPRPRPCSGPRP
shrunken log2 fold change: -0.0235

RRIRVRPPRLPRPRPRPCVFPRP
shrunken log2 fold change: -0.00495

RRIRVRPPRLPRPRPRPCVIPRP
shrunken log2 fold change: -0.0142

RRIRVRPPRLPRPRPRPCVPPRP
shrunken log2 fold change: 0.124

RRIRVRPPRLPRPRPRPDCRPRP
shrunken log2 fold change: -0.0921

RRIRVRPPRLPRPRPRPDDCPRP
shrunken log2 fold change: -0.197

RRIRVRPPRLPRPRPRPDDKPRP
shrunken log2 fold change: -0.446

RRIRVRPPRLPRPRPRPDFFPRP
shrunken log2 fold change: -0.0229

RRIRVRPPRLPRPRPRPDFLPRP
shrunken log2 fold change: -0.189

RRIRVRPPRLPRPRPRPDGGPRP
shrunken log2 fold change: -0.0572

RRIRVRPPRLPRPRPRPDGRPRP
shrunken log2 fold change: 0.149

RRIRVRPPRLPRPRPRPDHAPRP
shrunken log2 fold change: 0.27

RRIRVRPPRLPRPRPRPDIAPRP
shrunken log2 fold change: -0.211

RRIRVRPPRLPRPRPRPDIGPRP
shrunken log2 fold change: -0.173

RRIRVRPPRLPRPRPRPDISPRP
shrunken log2 fold change: -0.0643

RRIRVRPPRLPRPRPRPDIYPRP
shrunken log2 fold change: -0.131

RRIRVRPPRLPRPRPRPDKCPRP
shrunken log2 fold change: -0.0495

RRIRVRPPRLPRPRPRPDKFPRP
shrunken log2 fold change: 0.0677

RRIRVRPPRLPRPRPRPDKSPRP
shrunken log2 fold change: -0.0971

RRIRVRPPRLPRPRPRPDLGPRP
shrunken log2 fold change: 0.155

RRIRVRPPRLPRPRPRPDLWPRP
shrunken log2 fold change: 0.115

RRIRVRPPRLPRPRPRPDMSPRP
shrunken log2 fold change: -0.0318

RRIRVRPPRLPRPRPRPDNHPRP
shrunken log2 fold change: 0.0415

RRIRVRPPRLPRPRPRPDNMPRP
shrunken log2 fold change: -0.868

RRIRVRPPRLPRPRPRPDPDPRP
shrunken log2 fold change: -0.0209

RRIRVRPPRLPRPRPRPDPHPRP
shrunken log2 fold change: -0.16

RRIRVRPPRLPRPRPRPDPPPRP
shrunken log2 fold change: 1.27

RRIRVRPPRLPRPRPRPDREPRP
shrunken log2 fold change: 0.0132

RRIRVRPPRLPRPRPRPDTNPRP
shrunken log2 fold change: -0.479

RRIRVRPPRLPRPRPRPDWEPRP
shrunken log2 fold change: 0.00682

RRIRVRPPRLPRPRPRPDWPPRP
shrunken log2 fold change: 0.334

RRIRVRPPRLPRPRPRPDWYPRP
shrunken log2 fold change: -0.0357

RRIRVRPPRLPRPRPRPDYNPRP
shrunken log2 fold change: -0.554

RRIRVRPPRLPRPRPRPDYQPRP
shrunken log2 fold change: 0.0174

RRIRVRPPRLPRPRPRPECFPRP
shrunken log2 fold change: 0.195

RRIRVRPPRLPRPRPRPECIPRP
shrunken log2 fold change: -0.0283

RRIRVRPPRLPRPRPRPECWPRP
shrunken log2 fold change: 0.573

RRIRVRPPRLPRPRPRPEDNPRP
shrunken log2 fold change: -0.184

RRIRVRPPRLPRPRPRPEFFPRP
shrunken log2 fold change: 0.183

RRIRVRPPRLPRPRPRPEFPPRP
shrunken log2 fold change: -0.081

RRIRVRPPRLPRPRPRPEFYPRP
shrunken log2 fold change: -0.251

RRIRVRPPRLPRPRPRPEGMPRP
shrunken log2 fold change: 0.326

RRIRVRPPRLPRPRPRPEGSPRP
shrunken log2 fold change: 0.464

RRIRVRPPRLPRPRPRPEIIPRP
shrunken log2 fold change: -0.0128

RRIRVRPPRLPRPRPRPEISPRP
shrunken log2 fold change: -0.122

RRIRVRPPRLPRPRPRPEKMPRP
shrunken log2 fold change: -0.3

RRIRVRPPRLPRPRPRPENEPRP
shrunken log2 fold change: -0.0631

RRIRVRPPRLPRPRPRPENFPRP
shrunken log2 fold change: 0.0199

RRIRVRPPRLPRPRPRPENVPRP
shrunken log2 fold change: -0.0136

RRIRVRPPRLPRPRPRPEPKPRP
shrunken log2 fold change: 0.13

RRIRVRPPRLPRPRPRPESLPRP
shrunken log2 fold change: -0.175

RRIRVRPPRLPRPRPRPETNPRP
shrunken log2 fold change: 0.0778

RRIRVRPPRLPRPRPRPFCCPRP
shrunken log2 fold change: -0.0229

RRIRVRPPRLPRPRPRPFCFPRP
shrunken log2 fold change: 0.0496

RRIRVRPPRLPRPRPRPFDRPRP
shrunken log2 fold change: 0.121

RRIRVRPPRLPRPRPRPFDWPRP
shrunken log2 fold change: -0.103

RRIRVRPPRLPRPRPRPFEMPRP
shrunken log2 fold change: -0.572

RRIRVRPPRLPRPRPRPFERPRP
shrunken log2 fold change: 0.0254

RRIRVRPPRLPRPRPRPFETPRP
shrunken log2 fold change: -0.0538

RRIRVRPPRLPRPRPRPFFDPRP
shrunken log2 fold change: 1.19

RRIRVRPPRLPRPRPRPFGFPRP
shrunken log2 fold change: -0.294

RRIRVRPPRLPRPRPRPFLIPRP
shrunken log2 fold change: -0.777

RRIRVRPPRLPRPRPRPFLWPRP
shrunken log2 fold change: -0.698

RRIRVRPPRLPRPRPRPFMEPRP
shrunken log2 fold change: -0.265

RRIRVRPPRLPRPRPRPFNAPRP
shrunken log2 fold change: -0.563

RRIRVRPPRLPRPRPRPFNQPRP
shrunken log2 fold change: -0.19

RRIRVRPPRLPRPRPRPFQPPRP
shrunken log2 fold change: -0.152

RRIRVRPPRLPRPRPRPFQTPRP
shrunken log2 fold change: -0.214

RRIRVRPPRLPRPRPRPFSAPRP
shrunken log2 fold change: -0.132

RRIRVRPPRLPRPRPRPFSNPRP
shrunken log2 fold change: -0.28

RRIRVRPPRLPRPRPRPFWDPRP
shrunken log2 fold change: -0.0687

RRIRVRPPRLPRPRPRPFWHPRP
shrunken log2 fold change: -0.205

RRIRVRPPRLPRPRPRPGAAPRP
shrunken log2 fold change: 0.653

RRIRVRPPRLPRPRPRPGCGPRP
shrunken log2 fold change: 0.679

RRIRVRPPRLPRPRPRPGEPPRP
shrunken log2 fold change: 0.043

RRIRVRPPRLPRPRPRPGFHPRP
shrunken log2 fold change: -0.184

RRIRVRPPRLPRPRPRPGFPPRP
shrunken log2 fold change: 0.141

RRIRVRPPRLPRPRPRPGGLPRP
shrunken log2 fold change: 0.00797

RRIRVRPPRLPRPRPRPGHLPRP
shrunken log2 fold change: -0.185

RRIRVRPPRLPRPRPRPGHQPRP
shrunken log2 fold change: -0.0671

RRIRVRPPRLPRPRPRPGKHPRP
shrunken log2 fold change: -0.391

RRIRVRPPRLPRPRPRPGKPPRP
shrunken log2 fold change: 0.0464

RRIRVRPPRLPRPRPRPGKSPRP
shrunken log2 fold change: -0.0236

RRIRVRPPRLPRPRPRPGLAPRP
shrunken log2 fold change: 0.166

RRIRVRPPRLPRPRPRPGLSPRP
shrunken log2 fold change: 0.32

RRIRVRPPRLPRPRPRPGMDPRP
shrunken log2 fold change: 0.225

RRIRVRPPRLPRPRPRPGPDPRP
shrunken log2 fold change: 0.465

RRIRVRPPRLPRPRPRPGQCPRP
shrunken log2 fold change: -0.0287

RRIRVRPPRLPRPRPRPGQRPRP
shrunken log2 fold change: 0.0272
